# Experimental data reported in US20050153395A1 (CHILDREN S HOSPITAL, published 2005).
# Positions count from the first letter of the chain named. Names may count otherwise.
# B1: CTGF4 mutant M1 (I257A, R258A, T259A, P260A) (ligand)
# chain: EENIKKGKKCAAAAKISKPIKFELSGCTSMKTYRAKFCGVCTDGRCCTPHRTTTLPVEFKCPDGEVMKKNMMFIKTCACHYNCPGDNDIFESLYYRKMYGDMA
# B2: CTGF4 mutant M4 (E269A, L270A, S271A, G272A) (ligand)
# chain: B1 chain with A11I, A12R, A13T, A14P, E23A, L24A, S25A, G26A
# B3: CTGF4 mutant M3 (P265A, I266A, K267A, F268A) (ligand)
# chain: B1 chain with A11I, A12R, A13T, A14P, P19A, I20A, K21A, F22A
# Molecular target: integrin αvβ3 on activated rat hepatic stellate cells (HSC) (rat, UniProt Q8R2H2 26-787)
# Sequence (Q8R2H2 26-787): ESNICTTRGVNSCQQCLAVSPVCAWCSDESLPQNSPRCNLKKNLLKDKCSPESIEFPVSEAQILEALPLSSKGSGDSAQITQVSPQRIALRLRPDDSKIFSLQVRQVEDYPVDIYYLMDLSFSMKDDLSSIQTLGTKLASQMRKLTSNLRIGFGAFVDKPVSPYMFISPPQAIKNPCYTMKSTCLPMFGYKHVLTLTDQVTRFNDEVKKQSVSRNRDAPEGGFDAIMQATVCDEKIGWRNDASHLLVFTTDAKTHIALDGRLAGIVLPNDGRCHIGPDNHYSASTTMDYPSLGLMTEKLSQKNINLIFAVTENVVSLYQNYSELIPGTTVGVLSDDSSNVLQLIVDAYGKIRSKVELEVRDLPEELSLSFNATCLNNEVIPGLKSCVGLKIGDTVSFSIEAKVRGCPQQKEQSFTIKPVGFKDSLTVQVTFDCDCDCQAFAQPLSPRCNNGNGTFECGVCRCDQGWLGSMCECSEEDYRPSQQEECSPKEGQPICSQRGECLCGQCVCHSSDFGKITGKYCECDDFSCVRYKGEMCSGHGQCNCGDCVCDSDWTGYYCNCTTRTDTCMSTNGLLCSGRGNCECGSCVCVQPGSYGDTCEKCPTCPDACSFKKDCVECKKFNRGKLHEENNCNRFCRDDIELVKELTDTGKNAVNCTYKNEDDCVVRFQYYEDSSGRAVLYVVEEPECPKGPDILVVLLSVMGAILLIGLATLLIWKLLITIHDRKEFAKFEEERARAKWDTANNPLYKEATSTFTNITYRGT
# Experiment: cell-based or functional assay
row,Binder,"HSC adhesion, level relative to wild-type CTGF4"
1,B1,33%
2,B2,46%
3,B3,80%
